Measured values reported in US20230380451A1, “MEANS AND METHODS TO DETOXIFY MYCOTOXINS” (priority 2020, published 2023).

Key:
[1] = Storage stability in storage buffer at different temperatures, residual DON transformation activity; format: biochemical; conditions: for Relative DON transformation activity: storage buffer
Procedure: (§1) To determine the transformation of DON to epi-THS by Akr I-III, described herein, the following assay was performed. An assay buffer was prepared containing 40 ppm DON, 1 mM NADPH in Teorell Stenhagen (TS) buffer, pH 6.0 (Östling and Virtama, Acta Physiologica Scandinavica, 1946, 11:4, 289-293). Tubes containing the assay buffer were transferred in a heating block at 30° C. The reaction was started by addition of Akr I-III to a final concentration of 200 nM in a final reaction volume of 200 μL. Samples were taken before reaction start, and 2, 5, 10, 15 and 20 min after reaction start. DON transformation reactions in these samples were stopped by mixing with absolute methanol at a 1:2 ratio, followed by a 1:100 dilution with 40% methanol. The concentrations of DON and epi-THS in the samples were determined with liquid chromatography-mass spectrometry (LC-MS) on a Sciex 5500 triple quadrupole mass spectrometer coupled to Agilent 1290 series UHPLC system, using the following MS parameters: Acquisition duration: 4 min; Scan Type: MRM (MRM); Polarity: Negative; Ion Source: Turbo Spray.
The storage stability of Akr I-III was tested by incubation of 5 μM enzyme solutions in storage buffer (50 mM Tris pH 9.0, 0.5M NaCl, 50% Glycerol), for 60 min in a thermocycler (Mastercycler, Eppendorf) set to gradient mode from 30° C. to 50° C. Throughout the incubation, samples were removed and placed on ice until DON transformation assays were performed as described in Example 3 to determine enzyme activities. The starting activity at time 0 min was set to 100% and the relative residual activities were determined throughout the incubation. Akr I retained more than 33% activity during 60 min in pH 6 at temperatures from 29.9° C. to 46.0° C. Akr III retained 15% to 90% activity during 20 min in pH 6 at temperatures from 29.9° C. to 40.7° C.

[2] = format: biochemical; conditions: pH 2 to pH 10 tested, 30° C.
Procedure: as §1
For LC, eluent A was 5% methanol, 94.9% water (ultrapure), 0.1% acetic acid, and eluent B was 99.9% methanol, 0.1% acetic acid, using a Phenomenex Kinetex 2.6 μm biphenyl 150×2.1 mm column, an injection volume of 1 μL and the protocol shown in Table 3.
By applying the DON transformation assay basically as described in Example 3, but at pH values ranging from pH 2 to pH 10, the pH optima for DON degradation of Akr I-III (SEQ ID NOs: 1-3) were determined. Akr I and Akr II reached maximum activities at pH 6.0, Akr III at pH 6.5.
By applying the DON transformation assay basically as described in Example 3, but at different temperatures ranging from 14.9° C. to 55.7° C., the temperature optima for the DON degradation activities of Akr I-III were determined. Akr I maximum activity was shown at approximately 35° C., Akr II at approximately 31° C., and Akr III at temperatures from approximately 28° C. to 33° C. (see FIG. 4). […] For Akr I even at temperatures below 20° C.

B1: Akr III: artificial amino acid sequence, variant of a wild type aldo-keto reductase (protein)
chain: MRTTEIAQGLKVSNLCIGAGPLGGMPTAFGYDVSEERGIATVQAVFDSPINFMDTSSEYGGSEARIGKVIREGRMPKGFVISSKADAEGEGVGRRGDFSAKQVRASFELSLERLGLTHLDVYFLHDPEKFPFEQVMARGGAMEELLRLKDEGLVGLVGVAGGDVLEMARYVDTGSLDILLNYGRYTILDRSADSLITKVSDAGMAFLNAGPYASGLLAAPRGGSAWYQYAPPDATALQAVDQLHELCESFDVSLRSVALQFSMRDPRITSTVVGLSRPERVRALLDDEAAEIPAELWEQLPAPLNGDIVLPR
modifications: ArkIII
retained activity ([1]; during 60 min in pH 6 at temperatures from 29.9° C. to 46.0° C.): more than 50% | Relative DON transformation activity ([1]; 29.9° C., 0 min (starting activity set to 100%)): 100.00% | Relative DON transformation activity ([1]; 29.9° C., 5 min): 89.1% | Relative DON transformation activity ([1]; 29.9° C., 10 min): 91.6% | Relative DON transformation activity ([1]; 29.9° C., 20 min): 90.3% | Relative DON transformation activity ([1]; 29.9° C., 35 min): 93.1% | Relative DON transformation activity ([1]; 29.9° C., 50 min): 74.0% | Relative DON transformation activity ([1]; 29.9° C., 60 min): 72.2% | Relative DON transformation activity ([1]; 35.3° C., 0 min (starting activity set to 100%)): 100.00% | Relative DON transformation activity ([1]; 35.3° C., 5 min): 96.00% | Relative DON transformation activity ([1]; 35.3° C., 10 min): 65.2% | Relative DON transformation activity ([1]; 35.3° C., 20 min): 98.6% | Relative DON transformation activity ([1]; 35.3° C., 35 min): 75.2% | Relative DON transformation activity ([1]; 35.3° C., 50 min): 80.2% | Relative DON transformation activity ([1]; 35.3° C., 60 min): 104.3% | Relative DON transformation activity ([1]; 37.9° C., 0 min (starting activity set to 100%)): 100.00% | Relative DON transformation activity ([1]; 37.9° C., 5 min): 94.01% | Relative DON transformation activity ([1]; 37.9° C., 10 min): 74.5% | Relative DON transformation activity ([1]; 37.9° C., 20 min): 43.9% | Relative DON transformation activity ([1]; 37.9° C., 35 min): 75.2% | Relative DON transformation activity ([1]; 37.9° C., 50 min): 80.9% | Relative DON transformation activity ([1]; 37.9° C., 60 min): 78.6% | Relative DON transformation activity ([1]; 40.7° C., 0 min (starting activity set to 100%)): 100.00% | Relative DON transformation activity ([1]; 40.7° C., 5 min): 104.1% | Relative DON transformation activity ([1]; 40.7° C., 10 min): 76.1% | Relative DON transformation activity ([1]; 40.7° C., 20 min): 81.6% | Relative DON transformation activity ([1]; 40.7° C., 35 min): 104.5% | Relative DON transformation activity ([1]; 40.7° C., 50 min): 75.8% | Relative DON transformation activity ([1]; 40.7° C., 60 min): 105.1% | Relative DON transformation activity ([1]; 43.4° C., 0 min (starting activity set to 100%)): 100.00% | Relative DON transformation activity ([1]; 43.4° C., 5 min): 83.4% | Relative DON transformation activity ([1]; 43.4° C., 10 min): 68.1% | Relative DON transformation activity ([1]; 43.4° C., 20 min): 66.7% | Relative DON transformation activity ([1]; 43.4° C., 35 min): 89.3% | Relative DON transformation activity ([1]; 43.4° C., 50 min): 81.3% | Relative DON transformation activity ([1]; 43.4° C., 60 min): 91.8% | Relative DON transformation activity ([1]; 46.0° C., 0 min (starting activity set to 100%)): 100.00% | Relative DON transformation activity ([1]; 46.0° C., 5 min): 97.7% | Relative DON transformation activity ([1]; 46.0° C., 10 min): 62.6% | Relative DON transformation activity ([1]; 46.0° C., 20 min): 62.5% | Relative DON transformation activity ([1]; 46.0° C., 35 min): 58.4% | Relative DON transformation activity ([1]; 46.0° C., 50 min): 23.3% | Relative DON transformation activity ([1]; 46.0° C., 60 min): 50.4% | Relative DON transformation activity ([1]; 50.8° C., 0 min (starting activity set to 100%)): 100.00% | Relative DON transformation activity ([1]; 50.8° C., 5 min): 77.4% | Relative DON transformation activity ([1]; 50.8° C., 10 min): 72.7% | Relative DON transformation activity ([1]; 50.8° C., 20 min): 19.5% | Relative DON transformation activity ([1]; 50.8° C., 35 min): 16.6% | Relative DON transformation activity ([1]; 50.8° C., 50 min): 10.9% | Relative DON transformation activity ([1]; 50.8° C., 60 min): 16.0% | pH of maximum DON degradation activity (pH optimum) [2]: 6.5
